Target: the molecule itself
Assay: thioflavin T fluorescence of fibril formation; monomeric αS (50 μM in Fig. 5; 20–200 μM in Fig. 4) with 10 μM ThT, 96-well plates with Teflon polybeads, shaking at 500 rpm, 37 °C (other temperatures in Fig. 6), PBS

B1: m-αS Δ104–140 (domain or fragment)
chain: not shown
binding result: binds

— paper PMC10322983, “Intramolecular interaction kinetically regulates fibril formation by human and mouse α-synuclein” (Scientific Reports, 2023)
